experiment: soluble on expression in E. coli; label from the status in PepcDB or PDB records

Sequence | soluble on expression in E. coli
MEFPDLGAHCSEPSCQRLDFLPLKCDACSGIFCADHVAYAQHHCGSAYQKDIQVPVCPLCNVPVPVARGEPPDRAVGEHIDRDCRSDPAQQKRKIFTNKCERSGCRQREMMKLTCDRCGRNFCIKHRHPLDHECSGEGHQTSRAGLAAISRAQGLASTSTAPSPSRTLPSSSSSSRATPQLPTRTASPVIALQNGLSEDEALQRALELSLAEAKPQVLSSQEEDDLALAQALSASEAEYQQQQAQSRSLKPSNCSLC | soluble
MEFTAEQLSQYNGTDESKPIYVAIKGRVFDVTTGKSFYGSGGDYSMFAGKDASRALGKMSKNEEDVSPSLEGLTEKEINTLNDWETKFEAKYPVVGRVVS | soluble
MEGEKGSKTRKGDALAREKLLEIAEKIYNQFEEEVVPSVSLPSRTKANLEYSDESDVWVYGDRESERSAKTVKGAFQLLKTTYATDFLINEHLARNRGSTLRELYYISEGWDYAKFKEQGESDRLIEDLEILTSLQREYFHMRPEEDGATMFGPIEITEQTKRGERNIHCQKDVGEGGYQIPFNVENIEFQKHDASMIIAIETGGMYARLMENGFDEAYNAILVHLKGQPARSTRRIIKRMNEELGIPVAVFTDGDPWSYRIYASVAYGAIKSAHLSEFMATPAAKFLGLQPSDIVEYELSTDKLTEQDVSALRSELSDPRFESDYWKEQIQLQLDIGKKAEQQAFAGKGLDFVTEVYLPNRLKEMGMI | soluble
MEGRLTVVPTPIGNLEDITLRALKVLREADLILAEDTRTSSVLLHHYDIHCPLQSHHKFNEHRTAKSLAERISGGERIALISDAGTPGISDPGFLLVRACAELGVVVECLPGPTALIPALVASGLPADRFVFEGFLPVKKGRQTRMKELAEELRTMIFYESPHRVLRTLTQFVETFGLDRPAAACRELSKLHEEVIRGTLAELLAHFENHPPRGEFVLIVGGAAPKGRKEEKQ | not soluble
MEHEQHSSINDILHHYKEGIGSFTNQIPEIAETYNAFTQACFQEGALTKREKQLIALGISLATQDEYCTIYHTKGCLDQGCSDKEILEACGVSAAFAGGAAMSQAVTLVQECLTELKNQKH | not soluble
MEHRDIVIVGGGMVGSALGAALSGKGLSVSVLEREAPAPFAPEQAPDLRVSAISPASAAFLQTIGAWGQALAMRAAPYRRMQVWERDEAAGTLFDAAEAGVPELGHIVENRVVQLAATEALLAKGDIDYRCPAVVSDIVYRPQASQLTLSDGSRLQARLLIAADGARSQVRDAAGIGVTGWDYPMHALVLSCRIDGGQQDITWQRFTPDGPQAFLPLSGDAASLVWYHRPEEVKRLLTLGDDELIAAVSQAFPRKLPGIRELAARGSFGLTRRHAQCYVKDGVALAGDAAHTIHPLAGQGVNLGFQDAAMLARTILDAHAKGEDWASGKTLVRYQRARKPANLAMQAGMDAFCYGFANDIGPLRLLRGLGLRLADKAGPLKREAIRYALGLRALEHHHHHH | not soluble
MEIARKVMEEFLEIWNEALAKRSLPGKFVNKDLNFGEFGLGDNYTPQHTAVRNYALVMAHMIATVQAVSG | not soluble
MEIHTYEKEFFDLLKRISHYSEAVALMHWDSRTGAPKNGSEDRAESIGQLSTDIFNIQTSDRMKELIDVLYERFDDLSEDTKKAVELAKKEYEENKKIPEAEYKEYVILCSKAETAWEEAKGKSDFSLFSPYLEQLIEFNKRFITYWGYQEHPYDALLDLFEPGVTVKVLDQLFAELKEAIIPLVKQVTASGNKPDTSFITKAFPKEKQKELSLYFLQELGYDFDGGRLDETVHPFATTLNRGDVRVTTRYDEKDFRTAIFGTIHECGHAIYEQNIDEALSGTNLSDGASMGIHESQSLFYENFIGRNKHFWTPYYKKIQEASPVQFKDISLDDFVRAINESKPSFIRVEADELTYPLHIIIRYEIEKAIFSNEVSVEDLPSLWNQKYQDYLGITPQTDAEGILQDVHWAGGDFGYFPSYALGYMYAAQLKQKMLEDLPEFDALLERGEFHPIKQWLTEKVHIHGKRKKPLDIIKDATGEELNVRYLIDYLSNKYSNLYLL | soluble
MEIKEVLPCIADPKKLRVIGRVDGNFPAVMPYLARLIPNASYNEKRGWISFKKGQRIITIHEDGFVAMTQIKDEDEAKSILGEIEQKAQEAWEKRNKIDLSKPLEKTVVSPFDVYNYLPKTNCKRCGEQTCMAFAVKLLNGEVDIKACKPLFEDKKYEGLRETLIGMLVAAGYDLEL | soluble
MEINTIIGNNLKKIRQEKKLTLDELAGITGVSKGMLSQIEKGTTNPTINTIWKISNGLNVPYTYLLEDDYVKENPVVKKTETVTQHSEDHSYRVFNYYSDNQERNFELFQFELDPGKKYQAVGHSKRSTEYVMVIQGALALEVGGQRYLLPKDAAMYFDANQVHTYINDGTEKVQAVVINYYT | not soluble
MEINVDQINLMTKKGLRGDLKNFESVLDFLEKYGNATIVKYGMYSLVFQIAMNKFIDISKECEECGGKCCQIGYPVPVYGFDYEELRNKLSMEDLKKLEKVDSNLFLLRRPCKFQKGWYCSIHKFKPYACLSYPFATEDEQRDAINSYDGKGIPDLEHHHHHH | not soluble
MEKFGKPLEENGKEATATVIGLGKLGSEELNYYSDVDLMFIHSTDKGKAGNLSLNDFFQRLFQKVVKLLNAQTPEGVPYFVDLDLRPFGKSGPLSMPLRSAELYYESYGRIWERFALLRARYCAGDEELAQKFMKEVVRPFVFGPADYKLVEEIRLMKKRIEAEAKKKFIKGYNVKTGEGGIREVEFSVQSLVILLGSKTPILRESNTYRAIYKLMQKGVFSSEEAQKLEESYTFLRKLEHRIQLRECLQTQVLKESDKETFAKFLGFESKEEFEEKLKETRAFVKSVFSQILPEREEEELDELQEAVIMEDEESGTQILKQKGFKSTRQIFTLLSEPLYGSMNVHFTEKEKKLYIKLIPKLVNLALSSQNPDQSIKNFFKFFFNPTGRRVILSEHKREEFLEKLFTVFSVSDYLSHLVARNPDLVEDALTLYRDFPKFEDFKREFEKYRETLNLSPENLYRRFKTVWEVRIGLVYLLKEEDRYEKLKKLYISLSTLADFILSNLWKDITLEENTALLYALGKLGSRELNFNSDLDLVFAVKSLEEKEKVHEKAKELVRFLTAHTTEGYLYSVDFRLRPMGSKGELVPTFDFYKKYFEKEARTWERLAWTRARYITGNEEFKEEFERLIENFLFEKPWGEKEKREVYEMRMKLQSVAKRGRGVVDLKLGEGGIVDGEFLVQYLLIKEKIRETSMIRGFEVLMEKYPRLKEAYDSFMFLRLVETHLRLSKERGTSVLSEQDIPKVALSLGMKPEELKESIKEKMKKMREVFNEFLAQ | not soluble
MEKKKVVLAYSGGLDTSVAIKWLQEKNYDIIALCLDLGEGKDLAFVKEKALSVGAIKSYMIDVQEEFANEYALMAMQAHTLYEGKYPLVSALSRPLIAKKLVEIAEQEGATAVAHGCTGKGNDQVRFEVSIQALNPYLEVIAPVREWKWSREEEIAYAKENNVPIPINLDSPFSIDQNLWGRSNECGILEDPWAAPPEDAYEMTLALEDTPNKPEFVEIGFEAGVPTTLNGTAYPLSELIKTLNALAGKHGVGRIDHVENRLVGIKSREVYECPAAMTLITAHKELEDLTLVKEVAHFKPMIEQKITELIYNGLWFSPLKQALHAFLQETQKNVTGTVRVKLFKGHAIVEGRKSEYSLYDEKLATYTAQDEFNHDAAVGFISLFGLPTKVYSQVNQKKVEA | not soluble
MEKKLVPQSISKERLQKLEAQATLTPQQEEAKARKIEREKARLKELNIPTESKESKDCSPAGMINPYALTEVILERPLDWSNPRTTDIVERVLGSSMQDLSKGDSVLRAGRDQNAEVKIVDSVLTKTQRGQDGLERILESFNDYDMPPEEKEEAAPKAKKAAQKLDIDDLREQALSSTTITKEISKIILPTKNLRDDNNTVHQYREVGFQSNGAHNLWDTVVQGIAGDC | not soluble
MEKQYRVLLYYKYVPIEDPEAFREQHLAFCKELGLLGRILVSSEGINGTVSGTVEQTEKYMETMKADPRFADMVFKIDEAEGHAFKKIFVRHKKELVTLRLEDDVDPNETTGQHLKPAEFYEKMQDPNTIVIDARNDYEYDLGHFRGAVRPDIEAFRELPEWIEEHKDMLEGKKILTYCTGGVRCEKFSGWLVKQGFEDVAQLDGGIVTYGKDPEVQGKLWDGQCYVFDERISVPVNRVEHVIVGKDYFTGEPCERYVNCANPSCNKKMICTPENEYKYMRSCSHECRTNPRNLYVKEHNMTEEEVNARLAAIETEDHAAAELEHHHHHH | soluble
MEKRRVILVTDGDEFACRAIERVAAEIGGRCISRSQGNPTKLSGEQLVELILQTPHDPVFVMFDDCGALGEGAGEQALRYVATHEQIQVLGALAVASNTHQHEWTKVHVSIDRDGVMTEYGVDKEGFRDLEIGRINGDTVYCLDRLNIPLIVGIGDIGKMGYRDHAKYGAPITRKAVELILERSGGHAGKRKETESADREAAR | not soluble
MEKVHYAAIDVGSNAVRLLIKCVNSEGMEEPLSKVLIMRVPIRLGEDSFTKGYIGEEKTDNMVRLMRAYYEMMQIYRVKDYRACATSAMRDASNAEAVIAQIREKTGIHIDIIDGDEEARLVSDNHIEQIISDGGNYIYLDVGGGSTELTIPAAEIFLEVADITGAKTIIAPIVGLADGIIEDLYIRHQSQPSLEHHHHHH | soluble
MEKVMIELEEQVNQLINQILLKAENQYELLIGQCRSKVKLTNTQEHILMLLSEGQKTNSELAKALNVSQAAVTKAVKTLVKEGMLEGKKDKDDGRVTYFVLTQEAQPIAQEHKEHHQETLGVYRSVLDQFDHQERQVIGRFLIKLAEKIEE | not soluble
MEKVVCIGCGVTIQTEDKTGLGYAPPASLTKENVICQRCFRLKNYNEIQDVSLTDDDFLNILHGIGETDSLVVKIVDIFDFNGSWINGLQRLVGGNPILLVGNKADILPKSLKRERLIQWMKREAKELGLKPVDVFLVSAGRGQGIREVIDAIEHYRNGKDVYVVGCTNVGKSTFINRIIKEVSGEEDIITTSQFPGTTLDAIEIPLDDGSSLYDTPGIINNHQMAHYVNKKDLKILSPKKELKPRTFQLNDQQTLYFGGLARFDYVSGERSPFICYMPNELMIHRTKLENADALYEKHAGELLTPPGKDEMDEFPELVAHTFTIKDKKTDIVFSGLGWVTVHDADKKVTAYAPKGVHVFVRRSLILEHHHHHH | soluble
MEKYIKEQRSICDKYKAEYVESPNDLKLGIAQNVKDGIAPINGLRMPIENGTTGWYIWAGEEMGTEEDFFLPLHVQHIDEWAPEIKKYLGLPPGWRFLIAGDYEDVWYDPNLFDEDLEEDADEWEENMLQEYGWYMHSILAEDIDGIHANYHTHGLRDNFNHQDLQIALNMDPEVAHSVFCTIIEEIKSGKKFEQGIEYTNIIEGYPIIMKSFVEMDREVLRVLLPDERGILPTRPECDECYKTQLDDIEES | not soluble
MELEDANVTKKVELRPLIGLTRGLPPTDLETITIDAIRTHRRLVEKADELFQALPETYKTGQACGGPQHIRYIEASIEMHAQMSALNTLYSILGFIPKVVVN | soluble
MELGLAGKTALVAASSQGLGKAIARALVLEGTNVMITSRNEEKLHEVAEELNSLHKGRVAYTRTDVTNADDIRQLVAKTVETFGTIDLLVNNAGGPPAGTFETVSDEDWQYAFELNLLSYIRLIREALPYLKKKGGKIVNIASSSIKEPIPGLILSNTFRTGIVGLTKTLAVELAPDGILINTVAPGRIATERVAFLDKVNAEKLGITKEEMEARMKSAIPLGRYGTPEEFANVVVFLLSEANSYVTGQALIVDGGMVKAI | soluble

Source: the DeepSol protein solubility set
